This is an account of results in article PMC7229829, “Distortion of double-stranded DNA structure by the binding of the restriction DNA glycosylase R.PabI” (Nucleic Acids Research, 2020).

The chains are these.
B1: R.PabI(Y68F-K154A) mutant (enzyme, Pyrococcus abyssi, UniProt Q9V2B6 8-226, looked up)
chain: EASVSFENGKIVVRLPITRPTSKIRVKKIENGVGIPVSTRKKSFPSDENLRDYYIEWQISFARDGKYDYELSRMVRLAHEHGILTYNDIYELLKFADDVKSYLEDKGIRRESTNEELYGFNIYEDVYPVAKKELPSGEFIGIVLKHAQRAVGYQSMVYVCIPLTNVEPSLAGRVARRNEVVKYEVPVDLMKELLKAFIIASETHKNDIVKFLRSIIGTS
notes: R.PabI, restriction DNA glycosylase of Pyrococcus abyssi, residues 8-226, cloned into pET26b; Mr = 25 287 printed; the vector pET26b can add a C-terminal His tag, but the printed Mr fits residues 8-226 without a tag; also called Y68F-K154A double mutant of R.PabI; source: E. coli Rosetta(DE3)pLysS, purified (heat 80°C, TOYOPEARL AF-Heparin, Mono S)
B2: R.PabI(Y68F-P27G) mutant (enzyme, Pyrococcus abyssi, UniProt Q9V2B6 8-226, looked up)
chain: EASVSFENGKIVVRLPITRGTSKIRVKKIENGVGIPVSTRKKSFPSDENLRDYYIEWQISFARDGKYDYELSRMVRLAHEHGILTYNDIYELLKFADDVKSYLEDKGIRRESTNEELYGFNIYEDVYPVAKKELPSGEFIGIVLKHKQRAVGYQSMVYVCIPLTNVEPSLAGRVARRNEVVKYEVPVDLMKELLKAFIIASETHKNDIVKFLRSIIGTS
notes: R.PabI, restriction DNA glycosylase of Pyrococcus abyssi, residues 8-226, cloned into pET26b; Mr = 25 304 printed; Called a dimer in the methods (loaded '2 μM as a dimer'); also called Y68F-P27G double mutant; source: E. coli Rosetta(DE3)pLysS, purified (heat 80°C, TOYOPEARL AF-Heparin, Mono S)
B3: R.PabI(K154A-P27G-T28G) mutant (enzyme, Pyrococcus abyssi, UniProt Q9V2B6 8-226, looked up)
chain: EASVSFENGKIVVRLPITRGGSKIRVKKIENGVGIPVSTRKKSFPSDENLRDYYIEWQISYARDGKYDYELSRMVRLAHEHGILTYNDIYELLKFADDVKSYLEDKGIRRESTNEELYGFNIYEDVYPVAKKELPSGEFIGIVLKHAQRAVGYQSMVYVCIPLTNVEPSLAGRVARRNEVVKYEVPVDLMKELLKAFIIASETHKNDIVKFLRSIIGTS
notes: R.PabI, restriction DNA glycosylase of Pyrococcus abyssi, residues 8-226, cloned into pET26b; Mr = 25 219 printed; Called a dimer in the methods (loaded '2 μM as a dimer'); source: E. coli Rosetta(DE3)pLysS, purified (heat 80°C, TOYOPEARL AF-Heparin, Mono S)
B4: R.PabI(Y68F-P27G-T28G) mutant (enzyme, Pyrococcus abyssi, UniProt Q9V2B6 8-226, looked up)
chain: EASVSFENGKIVVRLPITRGGSKIRVKKIENGVGIPVSTRKKSFPSDENLRDYYIEWQISFARDGKYDYELSRMVRLAHEHGILTYNDIYELLKFADDVKSYLEDKGIRRESTNEELYGFNIYEDVYPVAKKELPSGEFIGIVLKHKQRAVGYQSMVYVCIPLTNVEPSLAGRVARRNEVVKYEVPVDLMKELLKAFIIASETHKNDIVKFLRSIIGTS
notes: R.PabI, restriction DNA glycosylase of Pyrococcus abyssi, residues 8-226, cloned into pET26b; Mr = 25 260 printed; Called a dimer in the methods (loaded '2 μM as a dimer'); also called Y68F-P27G-T28G triple mutant; source: E. coli Rosetta(DE3)pLysS, purified (heat 80°C, TOYOPEARL AF-Heparin, Mono S)
B5: R.PabI(K154A) mutant (enzyme, Pyrococcus abyssi, UniProt Q9V2B6 8-226, looked up)
chain: EASVSFENGKIVVRLPITRPTSKIRVKKIENGVGIPVSTRKKSFPSDENLRDYYIEWQISYARDGKYDYELSRMVRLAHEHGILTYNDIYELLKFADDVKSYLEDKGIRRESTNEELYGFNIYEDVYPVAKKELPSGEFIGIVLKHAQRAVGYQSMVYVCIPLTNVEPSLAGRVARRNEVVKYEVPVDLMKELLKAFIIASETHKNDIVKFLRSIIGTS
notes: R.PabI, restriction DNA glycosylase of Pyrococcus abyssi, residues 8-226, cloned into pET26b; Mr = 25 303 printed; Called a dimer in the methods (loaded '2 μM as a dimer'); PDB 3WAZ (cited) holds R.PabI(K154A) with product dsDNA; also called K154A mutant of R.PabI; source: E. coli Rosetta(DE3)pLysS, purified (heat 80°C, TOYOPEARL AF-Heparin, Mono S)
B6: R.PabI(Y68F) mutant (enzyme, Pyrococcus abyssi, UniProt Q9V2B6 8-226, looked up)
chain: EASVSFENGKIVVRLPITRPTSKIRVKKIENGVGIPVSTRKKSFPSDENLRDYYIEWQISFARDGKYDYELSRMVRLAHEHGILTYNDIYELLKFADDVKSYLEDKGIRRESTNEELYGFNIYEDVYPVAKKELPSGEFIGIVLKHKQRAVGYQSMVYVCIPLTNVEPSLAGRVARRNEVVKYEVPVDLMKELLKAFIIASETHKNDIVKFLRSIIGTS
notes: R.PabI, restriction DNA glycosylase of Pyrococcus abyssi, residues 8-226, cloned into pET26b; Mr = 25 344 printed; Called a dimer in the methods (loaded '2 μM as a dimer'); source: E. coli Rosetta(DE3)pLysS, purified (heat 80°C, TOYOPEARL AF-Heparin, Mono S)

The data set concerns the molecule itself. Nature of the data set: SEC; Superdex 200 HR 10/30; 2 μM as a dimer loaded; 10 mM MES pH 6.0, 500 mM NaCl; oligomeric state estimated against standard proteins.
A word on the stoichiometry N: it is the number of molecules, sites or subunits per partner or assembly. With B1, the “stoichiometry N” value was 2. In the case of B2, the binding result is given as “binds”. Take B3: the binding result is listed as “binds”. On to B4, for which the binding result is “binds”. Regarding B5, the binding result is recorded as “binds”. The same measure, in the same setting: the value for B6 was “binds”.
